Results published in PMC12852032.

Experiments:
recombinant rat C2 (rat) [1] = test: Meso Scale Discovery (electrochemiluminescence plate binding assay); rat C2 coated on the plate; serial dilutions of antibody; binding and washing at pH 7.4 + 1.25 mM Ca2+
recombinant rat C2 (rat) [2] = test: Meso Scale Discovery (electrochemiluminescence plate binding assay); rat C2 coated on the plate; serial dilutions of antibody; binding and washing at pH 7.4; detection with Sulfo-tag goat anti-human IgG

B1: empasiprubart (antibody, V domains shown)
VH: EVQLVQSGAEVKKPGASVKVSCKASGYTFTDYNMDWVRQATGQGLEWIGDINPNYESTGYNQKFKGRATMTVDKSISTAYMELSSLRSEDTAVYYCAREDDHDAFAYWGQGTLVTVSS
VL: DNVLTQSPDSLAVSLGERATISCRASKSVRTSGYNYMHWYQQKPGQPPKLLIYLASNLKSGVPDRFSGSGSGTDFTLTISSLQAEDAATYYCQHSRELPYTFGQGTKLEIK
Q: For B1, which maximum MSD signal (recombinant rat C2 (rat) [1]) is on record?
A: The maximum MSD signal was 24700.

Q: What about the maximum MSD signal (recombinant rat C2 (rat) [2]) of the same binder?
A: Its maximum MSD signal is 12000.
